Reference: PMC3132758

What was measured:
[1] = target: CdvB from Metallosphaera sedula (ESCRT-III-like), full length (Metallosphaera sedula); test: SEC; CdvB and CdvC mixed, 20 µM each, on Superose 6; fractions analysed by SDS-PAGE; void volume peak holds both
[2] = target: CdvC from Metallosphaera sedula (Vps4-like AAA ATPase) (Metallosphaera sedula); test: SEC; CdvC alone at >75 µM (180 µM) on Superose 6; single high molecular weight peak

stoichiometry N [1]	stoichiometry N [2]	Substance
1	–	CdvC from Metallosphaera sedula (Vps4-like AAA ATPase)
–	12	CdvC from Metallosphaera sedula (Vps4-like AAA ATPase) (enzyme)
